Non-standard residues stand in square brackets, D forms with d. No end group written: not given here. Arg(Me2a) = CN(C)C(=N)NCCC[C@H](N)C(=O)O; Lys(Me3) = C[N+](C)(C)CCCC[C@H](N)C(=O)O; Arg(Me2s) = CN=C(NC)NCCC[C@H](N)C(=O)O; pT = C[C@@H](OP(=O)(O)O)[C@H](N)C(=O)O; Lys(Me2) = CN(C)CCCC[C@H](N)C(=O)O; pS = N[C@@H](COP(=O)(O)O)C(=O)O; Lys(Me) = CNCCCC[C@H](N)C(=O)O
T1: Bdf1 bromodomain 2 (GST-tagged, WT) (Saccharomyces cerevisiae (strain ATCC …, UniProt P35817))
T1 chain: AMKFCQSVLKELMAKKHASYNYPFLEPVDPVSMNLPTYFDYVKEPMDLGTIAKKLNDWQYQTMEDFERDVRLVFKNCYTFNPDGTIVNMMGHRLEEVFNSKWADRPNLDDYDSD

T2: Bdf1 bromodomain 1 (GST-tagged, WT) (Saccharomyces cerevisiae (strain ATCC …, UniProt P35817))
T2 chain: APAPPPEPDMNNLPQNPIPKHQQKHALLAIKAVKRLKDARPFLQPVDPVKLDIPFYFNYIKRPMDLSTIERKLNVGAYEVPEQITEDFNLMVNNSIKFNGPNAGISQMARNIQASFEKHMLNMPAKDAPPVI


Columns and labels:
[1] = target: T1, Bdf1 bromodomain 2 (GST-tagged, WT); assay: histone peptide array probed with recombinant GST-bromodomain, signal normalised to myc peptide control
[2] = target: T2, Bdf1 bromodomain 1 (GST-tagged, WT); assay: as above

Row | Binder | binding score [1] | binding score [2]
1 | A[Arg(Me2a)]TK(Me3)QTARKSTGGKAPRKQ | 0.00344 | 0.0122
2 | ARTKQTA[Arg(Me2a)][Lys(Me)][pS][pT]GGKAPRKQ | 0 | 0
3 | ARTKQTARKSTGGKAPRKQ (A Rme2s T Kme2 Q T A Rme2s Kme1 S T G G K A P R K Q) | 0.00423 | 0.00323
4 | ARTKQTARKSTGGKAPRKQ (A R T K Q T A Rme2a Kme2 pS T G G K A P R K Q) | 0.0062 | 0.00215
5 | SGRGKGGKGLGKGGAKRHR (S G R G Kac G G K G L G K G G A K R H R) | 0.0404 | 0.00681
6 | ARTKQTARKSTGGKAPRKQ (not fully specified) | 0.00718 | 0.00592
7 | ARTKQTARKSTGGKAPRKQ (A Rme2s T Kme3 Q T A R K S T G G K A P R K Q) | 0 | 0
8 | ARTKQTARKSTGGKAPRKQ (A Rme2a T Kac Q T A Rme2a K S T G G K A P R K Q) | 0.00718 | 0.00932
9 | PRKQLATKAA[Arg(Me2s)][Lys(Me)][pS]APATGG | 0 | 0
10 | ARTKQTARKSTGGKAPRKQ (A Rme2s T Kme3 Q T A R Kme3 S T G G K A P R K Q) | 0 | 0.0117
11 | RKSAPATGGVKKPHRYRPG (R K S A P A T G G V Kme3 K P H R Y R P G) [H3 26-45] | 0 | 0
12 | ARTKQTARKSTGGKAPRKQ (A Rme2a T Kme2 Q T A Rme2a K S T G G K A P R K Q) | 0.00698 | 0.00323
13 | ARTKQTARKSTGGKAPRKQ (A Rme2s T Kme2 Q T A R K S T G G K A P R K Q) | 0 | 0
14 | AR[pT][Lys(Me3)]QTARKSTGGKAPRKQ | 0.006 | 0.00305
15 | ART[Lys(Me3)]QTA[Arg(Me2a)][Lys(Me)]STGGKAPRKQ | 0.00148 | 0
16 | SGRGKGGKGLGKGGAKRHR (S G Rme2a G Kac G G Kac G L G K G G A K R H R) | 0.137 | 0.0418
17 | PRKQLATKAA[Arg(Me2a)][Lys(Me)]SAPATGG | 0 | 0.00341
18 | SGRGKGGKGLGKGGAKRHR (S G R G K G G Kac G L G Kac G G A Kac R H R) | 0.448 | 0.484

Results, then the binder that gave them:

Row | binding score [1] | binding score [2] | Binder
19 | 0 | 0 | ARTKQTARKSTGGKAPRKQ (A R T Kme2 Q T A Rme2s Kme1 S T G G K A P R K Q)
20 | 0.496 | 0.307 | SGRGKGGKGLGKGGAKRHR (S G R G Kac G G Kac G L G Kac G G A K R H R)
21 | 0.121 | 0.00574 | ARTKQTARKSTGGKAPRKQ (A R T K Q T A R K S pT G G Kac A P R K Q)
22 | 0.00521 | 0 | ARTKQTA[Arg(Me2a)]K(Me)[pS]TGGKAPRKQ
23 | 0.00679 | 0.000538 | ARTK(Ac)QTARKSTGGKAPRKQ
24 | 0 | 0 | PRKQLATKAARKSAPATGG (histone peptides carry modifications given inline in the sequence and in columns 4-7 (Kac, Kme1/2/3, Rme2a/s, Cit, pS/pT); N-terminus free or acetylated)
25 | 0.0062 | 0 | ARTKQTARKSTGGKAPRKQ (A Rme2s T Kme1 Q T A Rme2s K S T G G K A P R K Q)
26 | 0.0902 | 0.0251 | ARTKQTARKSTGGKAPRKQ (A R T K Q T A R Kme1 S T G G Kac A P R K Q)
27 | 0 | 0.00448 | ARTKQTA[Arg(Me2a)][Lys(Me2)][pS][pT]GGKAPRKQ
28 | 0.00423 | 0.0126 | ARTKQTARKSTGGKAPRKQ (A Rme2a T Kme2 Q T A Rme2a Kac S T G G K A P R K Q)
29 | 0.00344 | 0.0122 | ARTKQTARKSTGGKAPRKQ (A R T K Q T A R Kme1 S pT G G K A P R K Q)
30 | 0.0135 | 0.00197 | [pS]GRGK(Ac)QGGKARAKAKSRSS
31 | 0 | 0.00753 | PRKQLATKAA[Arg(Me2s)][Lys(Me3)][pS]APATGG
32 | 0 | 0 | ARTKQTARKSTGGKAPRKQ (A Rme2s T Kac Q T A Rme2s Kme2 S T G G K A P R K Q)
33 | 0.0269 | 0.0109 | ARTKQTARKSTGGKAPRKQ (A Rme2s T Kme1 Q T A Rme2s Kac S T G G K A P R K Q)
34 | 0.00305 | 0.00341 | A[Arg(Me2s)]TK(Ac)QTARK(Me)STGGKAPRKQ
35 | 0.00659 | 0.0133 | ARTKQTARKSTGGKAPRKQ (A Rme2a T Kac Q T A Rme2a Kme3 S T G G K A P R K Q)
36 | 0.181 | 0 | PDPAK(Ac)SAPAPKK(Ac)G[pS]K(Ac)KAVT [H2B 1-19]
37 | 0 | 0.00251 | ARTKQTA[Arg(Me2a)][Lys(Me3)][pS][pT]GGKAPRKQ
38 | 0.394 | 0.144 | SGRGK(Ac)QGGK(Ac)ARAK(Ac)AKSRSS
39 | 0.0274 | 0.0213 | ARTKQTARKSTGGKAPRKQ (A Rme2a T Kme2 Q T A Rme2s Kac S T G G K A P R K Q)

Source: PMC5261807 (2017)
